# According to US20110269679A1, “INHIBITORS OF AMYLOID FIBRIL FORMATION AND USES THEREOF” (priority 2004, published 2011):
# Entries after “also recorded” stand apart in the source; their conditions may differ.
# Experiments:
# full-length IAPP1-37 = target: T1, full-length IAPP1-37 (Homo sapiens, UniProt P10997); details: earlier work, Fraser WO 02/24727; cited from earlier work
# T1 construct: When combined with full-length IAPP1-37 at relatively low molar ratios of 1:5 and 1:1
# T1 sequence (P10997 34-70): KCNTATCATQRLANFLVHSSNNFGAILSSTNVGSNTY
# [1] = system: rat insulinoma line (RIN-1056A) exposed to exogenous IAPP 1-37; experiment: IAPP amyloid toxicity assay in RIN cells (AlamarBlue cell viability); assay type: cell-based; details: molar ratio of 1:20 [IAPP:inhibitor]
# Protocol: 3. IAPP Amyloid Toxicity: Amyloid fibril cytotoxicity may be due to an apoptotic mechanism and/or mechanical disruption of the plasma membrane. The ability of inhibitors to prevent toxicity in cells exposed to exogenous amyloid is another indication of activity that is assessed. A rat insulinoma line (RIN-1056A) having β-cell-like characteristics is exposed to 10 μM IAPP 1-37 with inhibitors added simultaneously to the medium at 1-20 fold excess. IAPP and inhibitors are not pre-mixed, but are added separately to the cell culture medium to maximize the similarities to conditions in vivo.
# Toxicity is assayed both over the short (sampling every 2 hr over an 8-10 hr period) and long term (every 12 hr for a period of 6-7 days). Data from these investigations will indicate if the inhibitors are able to regulate this more physiological action of IAPP.
# IAPP 1-37 [2] = target: T2, IAPP 1-37 (Homo sapiens, UniProt P10997); experiment: Circular dichroism (CD): IAPP random coil to β-sheet conformational transition; details: for CD activity of modified or truncated tripeptides compared with ANF: significantly lower molar ratios than ANF
# T2 sequence (P10997 34-70): T1 sequence (P10997 34-70)
# Excerpt: 1. Circular Dichroism (CD): Amyloidogenic peptides and proteins undergo a conformational transition from a native to β-sheet conformation. […] In the case of peptides such as Aβ and IAPP, the non-fibrillar forms are essentially random coils that subsequently convert to a β-sheet under different conditions of pH and concentration.
# CD provides a global view of the peptide secondary structure over an extended time course that can be used to monitor the amyloid conformational transition (L e. , diagnostic absorption minima for β-conformation at 218 nm). IAPP is initially treated with hexafluroisopropanol (HFIP) and trifluroacetic acid (TFA), to ensure it is in a monomeric form. IAPP 1-37 (50 μM) in the presence of inhibitors (50 μM-1.0 mM) are compared to controls, with spectra collected twice daily for a period of 72 hours. (β-sheet conversion and precipitation occurs at 48-72 hrs depending on conditions used.) Inhibitors can be evaluated for their ability to maintain IAPP in a random or non-β conformation. This can be determined by direct comparisons of the spectra obtained, and by quantitative analyses using deconvolution algorithms (e.g., Jasco J720 spectropolarimeter contained in the inventor's laboratory, and equipped with Spectra Manager).
# IAPP 1-37 [3] = target: T2, IAPP 1-37; experiment: Negative stain electron microscopy of IAPP amyloid fibrils; details: negatively-stained preparations, IAPP + peptide, molar ratio 1:10
# Excerpt: 2. Negative Stain Electron Microscopy: IAPP amyloid morphology and relative density of the fibrils can be examined by transmission EM techniques. This provides information of the morphology of the aggregates formed (e.g., amorphous, fibrillar, truncated/protofilament structures, and/or abnormal lateral aggregation profiles). In addition, scanning of multiple grids and samples can be performed by an experienced EM technician who will assess the relative amount of fibrils formed in the presence of each inhibitor. This supporting evidence can be used to rank the relative activities of the inhibitors. Aliquots are taken from the samples used for CD analysis, and applied to pioloform coated grids, blotted dry, and stained with phosphotungstic acid (pH 7.0).
relative level/density and morphology of IAPP amyloid fibrils (EM) (IAPP 1-37 [3]),Substance,inhibitory activity of hexapeptide fragments (full-length IAPP1-37),activity in the RIN-cell toxicity assay using exogenous IAPP [1],also measured
,"NFLVHS: hexapeptide from the IAPP 8-20 domain, disclosed in WO 02/24727 (Hexapeptide derived from human IAPP)",displayed inhibitory activity,,
,ANFL: tetrapeptide sub-fragment of hexapeptide ANFLVH (Tetrapeptide derived from human IAPP),,showed activity,
significantly reduced density of fibrils,AGF: tripeptide ANF substituted with G at its second position (Tripeptide derived from human IAPP),,more activity than ANG (SEQ. ID. NO. 27) or ANF (SEQ. ID. NO. 24),"CD activity of modified or truncated tripeptides compared with ANF (IAPP 1-37 [2]): similar, but more potent, activities at significantly lower molar ratios"
,"ANFLVH: original hexapeptide from the IAPP 8-20 domain (13-18), disclosed in WO 02/24727 (Hexapeptide derived from human IAPP)",displayed inhibitory activity,,
,"GAILSS: hexapeptide from the IAPP20-29 region, disclosed in WO 02/24727 (Hexapeptide derived from human IAPP)",displayed inhibitory activity,,
active,NFL: truncated tripeptide of hexapeptide ANFLVH (Tripeptide derived from human IAPP),,,"CD activity of modified or truncated tripeptides compared with ANF (IAPP 1-37 [2]): similar, but more potent, activities at significantly lower molar ratios"
,"SNNFGA: hexapeptide from the IAPP20-29 region, disclosed in WO 02/24727 (Hexapeptide derived from human IAPP)",displayed inhibitory activity,,
,ANFLV: pentapeptide sub-fragment of hexapeptide ANFLVH (Pentapeptide derived from human IAPP),,showed activity,
significantly reduced density of fibrils,GNF: tripeptide ANF substituted with G at its first position (Tripeptide derived from human IAPP),,more activity than ANG (SEQ. ID. NO. 27) or ANF (SEQ. ID. NO. 24),"CD activity of modified or truncated tripeptides compared with ANF (IAPP 1-37 [2]): similar, but more potent, activities at significantly lower molar ratios"

Substance,relative level/density and morphology of IAPP amyloid fibrils (EM) (IAPP 1-37 [3]),inhibitory activity of hexapeptide fragments (full-length IAPP1-37),activity in the RIN-cell toxicity assay using exogenous IAPP [1],also measured
"ANF: truncated tripeptide of hexapeptide ANFLVH, IAPP residues 13-15 (Tripeptide derived from human IAPP)","reduced the relative levels of fibrils, and altered the morphology of the aggregates which were formed; also recorded: reduced the relative levels of fibrils and altered the morphology of the aggregates which were formed",,showed activity; also recorded: greater activity than the tetra- or penta-peptide,inhibition of IAPP conformational change from random coil to β-sheet (CD) (IAPP 1-37 [2]; combined with IAPP at a molar ratio of 1:10): inhibited this conformational change
ANG: tripeptide ANF substituted with G at its third position (Tripeptide derived from human IAPP),lower activity based upon the presence of multiple aggregate forms,,lower activity in the toxicity assay,
